pEC50: −log10 of the molar value. Where two headings read alike, the source gives them in different places.
How the values were obtained:
[1] = target: HA-mCherry-tagged SdhA (Legionella pneumophila); assay: co-IP
[2] = target: His-tagged ASH/RhoGAP domain of OCRL (536aa-901aa) (human) (UniProt Q01968); assay: ELISA
[3] = target: His-tagged ASH/RhoGAP domain of OCRL (536aa-901aa) (human) (UniProt Q01968); assay: ELISA; remark: listed apart in the source
[4] = target: His-tagged ASH/RhoGAP domain of OCRL (536aa-901aa) (human) (UniProt Q01968); assay: ELISA; remark: listed apart in the source

Sequence of His-tagged ASH/RhoGAP domain of OCRL (536aa-901aa) (human) (Q01968 536-901): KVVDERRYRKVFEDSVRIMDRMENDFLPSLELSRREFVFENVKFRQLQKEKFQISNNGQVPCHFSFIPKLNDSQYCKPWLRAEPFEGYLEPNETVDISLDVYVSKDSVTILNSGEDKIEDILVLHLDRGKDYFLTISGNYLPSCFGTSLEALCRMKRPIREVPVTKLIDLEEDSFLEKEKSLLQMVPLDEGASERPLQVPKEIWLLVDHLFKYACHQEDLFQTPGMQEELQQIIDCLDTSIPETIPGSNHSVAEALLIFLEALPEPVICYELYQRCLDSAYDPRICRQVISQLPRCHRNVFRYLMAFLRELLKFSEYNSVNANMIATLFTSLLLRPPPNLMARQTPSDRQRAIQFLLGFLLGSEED
Sequence of AP complex beta subunit (P63010 whole entry, one chain of several): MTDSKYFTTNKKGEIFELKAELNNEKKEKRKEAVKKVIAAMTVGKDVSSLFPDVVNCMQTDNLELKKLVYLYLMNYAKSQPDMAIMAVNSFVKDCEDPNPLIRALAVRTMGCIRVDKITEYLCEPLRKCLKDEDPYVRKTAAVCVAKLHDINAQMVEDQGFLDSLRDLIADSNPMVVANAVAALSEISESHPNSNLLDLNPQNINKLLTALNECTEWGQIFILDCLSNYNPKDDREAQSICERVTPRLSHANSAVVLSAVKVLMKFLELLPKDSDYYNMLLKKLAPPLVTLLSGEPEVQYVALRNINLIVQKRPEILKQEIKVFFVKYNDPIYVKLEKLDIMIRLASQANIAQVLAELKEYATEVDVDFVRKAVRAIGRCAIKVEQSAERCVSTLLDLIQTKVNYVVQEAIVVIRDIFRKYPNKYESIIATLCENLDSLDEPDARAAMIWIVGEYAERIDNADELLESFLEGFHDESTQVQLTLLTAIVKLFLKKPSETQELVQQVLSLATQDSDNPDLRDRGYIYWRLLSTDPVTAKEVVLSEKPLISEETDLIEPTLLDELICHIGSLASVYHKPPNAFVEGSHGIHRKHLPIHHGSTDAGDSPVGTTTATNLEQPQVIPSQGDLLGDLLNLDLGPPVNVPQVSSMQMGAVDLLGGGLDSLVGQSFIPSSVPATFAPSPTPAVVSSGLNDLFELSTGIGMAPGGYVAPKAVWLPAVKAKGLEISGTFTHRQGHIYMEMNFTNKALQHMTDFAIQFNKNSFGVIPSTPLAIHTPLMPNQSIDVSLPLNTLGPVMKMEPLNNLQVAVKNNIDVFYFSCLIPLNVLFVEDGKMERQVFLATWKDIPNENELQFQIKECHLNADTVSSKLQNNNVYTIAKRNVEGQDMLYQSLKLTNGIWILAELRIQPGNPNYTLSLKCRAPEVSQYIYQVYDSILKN
Sequence of GFP-tagged, full-length OCRL (Q01968 whole entry): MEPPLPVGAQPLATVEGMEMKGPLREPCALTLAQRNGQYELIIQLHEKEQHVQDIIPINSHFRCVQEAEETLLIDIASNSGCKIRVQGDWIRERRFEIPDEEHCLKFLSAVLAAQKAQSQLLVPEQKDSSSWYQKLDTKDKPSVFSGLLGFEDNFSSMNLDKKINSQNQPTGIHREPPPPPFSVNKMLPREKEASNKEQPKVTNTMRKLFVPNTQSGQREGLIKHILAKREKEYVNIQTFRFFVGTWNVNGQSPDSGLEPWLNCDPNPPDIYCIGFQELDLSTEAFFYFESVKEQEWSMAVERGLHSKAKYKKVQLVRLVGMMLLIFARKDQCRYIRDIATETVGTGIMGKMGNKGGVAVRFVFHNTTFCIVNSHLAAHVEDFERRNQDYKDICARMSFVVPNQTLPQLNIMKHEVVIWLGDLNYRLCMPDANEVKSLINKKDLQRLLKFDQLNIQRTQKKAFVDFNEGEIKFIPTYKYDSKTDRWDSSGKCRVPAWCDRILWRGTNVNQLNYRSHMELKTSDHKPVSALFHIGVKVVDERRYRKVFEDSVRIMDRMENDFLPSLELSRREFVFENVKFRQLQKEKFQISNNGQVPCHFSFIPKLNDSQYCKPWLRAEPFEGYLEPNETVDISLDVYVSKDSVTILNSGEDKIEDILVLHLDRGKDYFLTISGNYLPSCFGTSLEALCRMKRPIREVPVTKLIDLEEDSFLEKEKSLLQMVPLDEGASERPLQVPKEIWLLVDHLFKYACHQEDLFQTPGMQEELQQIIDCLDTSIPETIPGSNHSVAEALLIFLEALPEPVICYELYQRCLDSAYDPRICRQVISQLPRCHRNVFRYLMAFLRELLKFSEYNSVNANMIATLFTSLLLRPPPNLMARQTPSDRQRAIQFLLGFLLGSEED

Substance | fold co-precipitation above the HA-mCherry control [1] | pEC50 [2] | pEC50 [3] | pEC50 [4]
AP complex beta subunit (from UniProt P63010 1-937) (natural protein) | 29.5 fold |  |  | 
GFP-tagged, full-length OCRL (from UniProt Q01968 1-901) (natural protein) | 27.5 fold |  |  | 
GST-SdhA-CBM2 (1029-1260aa) (from UniProt Q6RCQ3 1029-1260) (domain or fragment) |  | 7.06 | 7.09 | 
GST-SdhA-CBM2A (1029-1080aa) (from UniProt Q6RCQ3 1029-1080) (domain or fragment) |  |  | 7.57 | 8.09
